Numbering of substitutions follows the chain as printed. In names and notes the source's numbering stands.
B1: 4B7 HC_D62R (Fab, V domains shown)
VH: QVQLQQSGPGLVKPSQTLSLTCAISGDSVSSNSAAWSWIRQSPGRGLEWLGIIYKRSKWYNRYAVSVKSRITINPDTSKNQFSLQLNSVTPEDTAVYYCARWHSDKHWGFDYWGQGTLVTVSS
VL: DIVMTQSPLSLPVTPGEPASISCRSSQSLVFSDGNTYLNWYLQKPGQSPQLLIYKGSNRASGVPDRFSGSGSGTDFTLKISRVEAEDVGVYYCQQYDSYPLTFGQGTKVEIKR
notes: also called 4B7-D62R
B2: 2A8 HC_K99L (Fab, V domains shown)
VH: QVQLVESGGGLVQPGGSLRLSCAASGFTFRSYGMSWVRQAPGKGLEWVSSIRGSSSSTYYADSVKGRFTISRDNSKNTLYLQMNSLRAEDTAVYYCARLYRYWFDYWGQGTLVTVSS
VL: DIELTQPPSVSVAPGQTARISCSGDNLRNYYAHWYQQKPGQAPVVVIYYDNNRPSGIPERFSGSNSGNTATLTISGTQAEDEADYYCQSWDDGVPVFGGGTKLTVLG
notes: also called 2A8-9
B3: 2A8-200 (HC S35D+S55R+K99L/LC Y48F+N51V+D91W) (Fab, V domains shown)
VH: B2 VH with S35D, S55R
VL: B2 VL with Y48F, N51V, D91W
B4: 2A8-143 (HC S35D+S55R+K99L/LC Y48F+N51V+D91L+V96W) (Fab, V domains shown)
VH: B2 VH with S35D, S55R
VL: B2 VL with Y48F, N51V, D91L, V96W
B5: 2A8-216 (HC S31V+I51D+S55R+K99V/LC Y48F+D91L+V96W) (Fab, V domains shown)
VH: B2 VH with S31V, I51D, S55R, L99V
VL: B2 VL with Y48F, D91L, V96W
B6: 2A8-127 (HC S35D+K99L/LC Y48F+N51V+G56D+V96W) (Fab, V domains shown)
VH: B2 VH with S35D
VL: B2 VL with Y48F, N51V, G56D, V96W
B7: 2A8 wild-type Fab (Fab, V domains shown)
VH: B2 VH with L99K
VL: B2 VL
notes: Fab with c-myc (or HA, or none) and 6xHis tag at the C-terminus of the heavy chain; also called 2A8wt; 2A8 wt

These binders were tested against T1, human tissue factor pathway inhibitor (TFPI) (human, UniProt P10646 29-304, limits assumed) (assay: SPR, TFPI immobilized).
T1 construct: bought; also called hTFPI; human TFPI
T1 sequence (looked up): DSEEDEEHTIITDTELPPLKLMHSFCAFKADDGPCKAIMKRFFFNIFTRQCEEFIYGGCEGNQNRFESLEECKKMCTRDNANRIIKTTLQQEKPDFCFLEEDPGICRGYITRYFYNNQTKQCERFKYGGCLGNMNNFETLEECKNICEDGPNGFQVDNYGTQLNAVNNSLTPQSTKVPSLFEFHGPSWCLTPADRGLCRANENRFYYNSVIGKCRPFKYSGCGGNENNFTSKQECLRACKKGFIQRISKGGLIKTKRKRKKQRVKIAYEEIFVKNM

kd fold improvement against 4B7	Binder
~50 fold	B1

These binders were tested against T1, human tissue factor pathway inhibitor … (assay: competitive ELISA).

variant/wild-type	Binder
13.5 ratio	B2

Each binder was assayed against T2, mouse tissue factor pathway inhibitor (TFPI) (mouse, UniProt O54819 29-289, limits assumed) (assay: competitive ELISA).
T2 construct: bought; also called mTFPI; murine TFPI
T2 sequence (looked up): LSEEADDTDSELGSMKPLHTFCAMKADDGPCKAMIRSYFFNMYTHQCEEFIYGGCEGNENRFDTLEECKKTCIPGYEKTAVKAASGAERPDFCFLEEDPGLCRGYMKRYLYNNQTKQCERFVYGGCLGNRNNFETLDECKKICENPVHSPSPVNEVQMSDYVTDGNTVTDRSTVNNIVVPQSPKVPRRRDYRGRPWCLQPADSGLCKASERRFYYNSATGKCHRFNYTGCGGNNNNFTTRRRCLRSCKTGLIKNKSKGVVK

variant/wild-type	Binder
10.8 ratio	B2

Target: T1, human tissue factor pathway inhibitor …
Assay: competitive ELISA
Remark: another data set of the same source

variant/HC_K99L	Binder
19.7 ratio	B3
17.8 ratio	B4
16.4 ratio	B5
18.8 ratio	B6

Target: T2, mouse tissue factor pathway inhibitor …
Assay: competitive ELISA
Remark: another data set of the same source

variant/HC_K99L	Binder
17.4 ratio	B3
13.4 ratio	B4
11.9 ratio	B5
18.7 ratio	B6

Target: T1, human tissue factor pathway inhibitor …
Assay: competitive ELISA
Remark: another data set of the same source

variant/wild-type	Binder
32.3 ratio	B1

Each binder was assayed against T2, mouse tissue factor pathway inhibitor … (assay: equilibrium ELISA).

variant/wild-type	Binder
230 ratio	B1

Target: T1, human tissue factor pathway inhibitor …
Assay: SPR, TFPI immobilized
Remark: another data set of the same source

Improvement	Kd	koff	kon	Binder
1 fold	2240 pM	0.007 s⁻¹	3.13e+06 M⁻¹ s⁻¹	B7
7.22 fold	309 pM	0.000803 s⁻¹	2.6e+06 M⁻¹ s⁻¹	B2
191 fold	58.2 pM	0.000165 s⁻¹	2.83e+06 M⁻¹ s⁻¹	B1

What follows are binders tested against T2, mouse tissue factor pathway inhibitor … (assay: SPR, TFPI immobilized).

Improvement	Kd	koff	kon	Binder
1 fold	3510 pM	0.00517 s⁻¹	1.47e+06 M⁻¹ s⁻¹	B7
7.2 fold	488 pM	0.000759 s⁻¹	1.56e+06 M⁻¹ s⁻¹	B2
137 fold	427 pM	0.00367 s⁻¹	8.58e+06 M⁻¹ s⁻¹	B1

Target: T1, human tissue factor pathway inhibitor …
Assay: SPR, TFPI immobilized
Remark: another data set of the same source

KD fold improvement	Kd	koff	kon	Binder
1 fold	1850 pM	0.0038 s⁻¹	2.05e+06 M⁻¹ s⁻¹	B7
53.7 fold	34.4 pM	9.88e-05 s⁻¹	2.87e+06 M⁻¹ s⁻¹	B3
50.9 fold	36.4 pM	0.000105 s⁻¹	2.88e+06 M⁻¹ s⁻¹	B4
39.6 fold	46.7 pM	0.000154 s⁻¹	3.29e+06 M⁻¹ s⁻¹	B5
22 fold	84.1 pM	0.000141 s⁻¹	1.68e+06 M⁻¹ s⁻¹	B6

Target: T2, mouse tissue factor pathway inhibitor …
Assay: SPR, TFPI immobilized
Remark: another data set of the same source

KD fold improvement	Kd	koff	kon	Binder
1 fold	3290 pM	0.0031 s⁻¹	940000 M⁻¹ s⁻¹	B7
55.4 fold				B3
48.5 fold				B4
63.9 fold	51.5 pM	0.000216 s⁻¹	4.19e+06 M⁻¹ s⁻¹	B5
18.5 fold				B6

These binders were tested against T3, recombinant TFPI of the FXa restoring assay (human, mouse or rat; not specified for Tables 9 and 10) (assay: cell-based or functional assay).

IC50, FXa restoring assay	Improvement vs parental, FXa restoring assay	Binder
0.7 µg/mL	1 fold	B7
0.181 µg/mL	3.9 fold	B2
0.058 µg/mL	25 fold	B1

Target: T3, recombinant TFPI of the FXa restoring …
Assay: cell-based or functional assay
Remark: another data set of the same source

EC50, FXa restoring assay	Improvement vs parental 2A8, FXa restoring assay	Binder
7910 pM	1 fold	B7
810 pM	9.7 fold	B3
500 pM	15.8 fold	B4
1000 pM	7.9 fold	B2
1080 pM	7.3 fold	B5
440 pM	18.2 fold	B6

— patent USRE47150 (Bayer, dated 2018)
